# Measured values from patent publication US20240035010, “COMPOSITIONS COMPRISING A VARIANT POLYPEPTIDE AND USES THEREOF” (Arbor Biotechnologies, Inc., published 2024).
# T1: variant nuclease 7 substitutions D590G/E154G/E736G (P14R, D32R, I61R, E311R, D590G, E154G, E736G)
# T1 chain: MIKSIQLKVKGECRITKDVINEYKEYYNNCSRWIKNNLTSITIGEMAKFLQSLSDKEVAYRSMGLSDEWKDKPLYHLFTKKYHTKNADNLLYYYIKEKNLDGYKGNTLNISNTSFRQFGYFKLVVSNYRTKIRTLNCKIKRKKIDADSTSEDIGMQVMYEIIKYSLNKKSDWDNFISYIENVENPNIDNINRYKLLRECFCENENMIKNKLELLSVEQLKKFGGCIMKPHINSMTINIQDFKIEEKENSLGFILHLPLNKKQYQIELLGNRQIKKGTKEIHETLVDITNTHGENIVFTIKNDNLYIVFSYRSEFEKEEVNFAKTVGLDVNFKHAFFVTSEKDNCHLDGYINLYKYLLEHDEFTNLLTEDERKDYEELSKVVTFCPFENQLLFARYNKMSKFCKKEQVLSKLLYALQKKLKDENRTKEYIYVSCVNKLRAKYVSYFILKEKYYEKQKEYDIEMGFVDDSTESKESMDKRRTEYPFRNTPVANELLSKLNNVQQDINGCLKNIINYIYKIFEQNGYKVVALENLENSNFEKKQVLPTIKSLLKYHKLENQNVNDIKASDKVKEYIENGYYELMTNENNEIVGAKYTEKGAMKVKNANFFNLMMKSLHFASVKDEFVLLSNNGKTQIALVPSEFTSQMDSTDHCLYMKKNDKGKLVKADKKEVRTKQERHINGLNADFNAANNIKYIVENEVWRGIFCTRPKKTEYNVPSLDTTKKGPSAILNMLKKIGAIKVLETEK
# T2: variant nuclease E154G combination (P14R, D32R, I61R, E311R, E154G)
# T2 chain: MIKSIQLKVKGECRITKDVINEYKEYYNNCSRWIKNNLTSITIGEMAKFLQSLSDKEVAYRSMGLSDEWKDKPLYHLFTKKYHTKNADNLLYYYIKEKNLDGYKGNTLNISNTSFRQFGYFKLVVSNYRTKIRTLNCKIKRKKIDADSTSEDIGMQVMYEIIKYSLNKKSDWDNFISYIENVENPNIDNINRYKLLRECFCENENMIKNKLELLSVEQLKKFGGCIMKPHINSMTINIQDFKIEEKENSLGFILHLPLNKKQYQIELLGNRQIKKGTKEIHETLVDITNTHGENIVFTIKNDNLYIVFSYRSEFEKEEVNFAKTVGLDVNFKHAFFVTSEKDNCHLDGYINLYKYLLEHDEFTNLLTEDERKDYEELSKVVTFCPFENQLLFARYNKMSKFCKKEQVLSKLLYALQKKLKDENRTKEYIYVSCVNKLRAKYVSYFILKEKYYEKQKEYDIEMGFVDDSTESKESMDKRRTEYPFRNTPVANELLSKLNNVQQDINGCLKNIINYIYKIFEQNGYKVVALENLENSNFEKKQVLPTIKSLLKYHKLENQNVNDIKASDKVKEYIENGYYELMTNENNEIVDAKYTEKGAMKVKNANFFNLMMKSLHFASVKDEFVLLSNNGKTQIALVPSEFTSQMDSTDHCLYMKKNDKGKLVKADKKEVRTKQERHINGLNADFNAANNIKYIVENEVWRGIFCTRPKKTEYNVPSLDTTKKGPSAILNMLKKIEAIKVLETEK
# Experiments:
# [1] = target: T1, variant nuclease 7 substitutions …; assay: cell_activity; PAM 5'-TTTG-3'; conditions: tags: pcDNA3.1 expression
# Protocol: (§1) Approximately 16 hours prior to transfection, 25,000 HEK293T cells in DMEM/10% FBS+Pen/Strep (D10 media) were plated into each well of a 96-well plate. On the day of transfection, the cells were 70-90% confluent. For each well to be transfected, a mixture of Lipofectamine 2000™ and Opti-MEM™ was prepared and incubated at room temperature for 5 minutes (Solution 1). After incubation, the Lipofectamine 2000™:Opti-MEM™ mixture was added to a separate mixture containing nuclease plasmid, RNA guide plasmid, and Opti-MEM™ (Solution 2). In the case of negative controls, the RNA guide plasmid was not included in Solution 2. Solutions 1 and 2 were mixed by pipetting up and down, then incubated at room temperature for 25 minutes. Following incubation, the Solution 1 and 2 mixture was added dropwise to each well of a 96-well plate containing the cells. Approximately 72 hours post transfection, cells were trypsinized by adding TrypLE™ to the center of each well and incubating at 37° C. for approximately 5 minutes. D10 media was then added to each well and mixed to resuspend cells. The resuspended cells were centrifuged at 500 g for 10 minutes to obtain a pellet, and the supernatant was discarded. The cell pellet was then resuspended in QuickExtract™ buffer (Lucigen®), and cells were incubated at 65° C. for 15 minutes, 68° C. for 15 minutes, and 98° C. for 10 minutes.
# (§2) This Example describes assessment of indel activity at multiple target sites using the wild-type polypeptide of SEQ ID NO: 3 or variant polypeptides of Table 4. The variant polypeptides were cloned into a pcDNA3.1 backbone (Invitrogen), and the cells were transfected as described in Example 7.
# (§3) The percentage of NGS reads containing indels (% indels) were calculated. For each variant polypeptide and target, % indels were averaged across two bioreplicates and two technical replicates. These values were then compared to % indels of the wild-type polypeptide of SEQ ID NO: 3.
# [2] = target: T2, variant nuclease E154G combination; assay: cell_activity; PAM 5'-TTTG-3'; conditions: tags: pcDNA3.1 expression
# Protocol: as §1, §2, §3
binder,measurement,setting,value
AAVS1 crRNA ; AAVS1 target (ssRNA ; dsDNA) RNA: CUUGUUGUAUAUGUCCUUUUAUAGGUAUUAAACAACUGAGAAUGGUGCGUCCUAGG DNA 1: TGAGAATGGTGCGTCCTAGG DNA 2: CCTAGGACGCACCATTCTCA,indel activity,[1],5.91 fold of WT
same,indel activity,[2],5.79 fold of WT
